The values below come from article PMC5673899, “Structural basis for receptor recognition of pollen tube attraction peptides” (Nature Communications, 2017).

For one assay, the system named is AtPRK3^LRR. The experiment in a line: Gel filtration assay with AtPRK3^LRR. Type of assay: binding, Arabidopsis. The note with it: 4 °C 30 min, 10 mM Bis-Tris pH 6.0, 100 mM NaCl. An excerpt:
(§1) The genes of AtPRK3 ^LRR (residues 1–241), AtPRK4 ^LRR (residues 1–277), AtPRK5 ^LRR (residues 1–279), AtPRK6 ^LRR (residues 1–262), MIK1 ^LRR (residues 1–633), MIK2 ^LRR (residues 1–707) were amplified from Arabidopsis cDNA library by PCR and cloned into pFastBac-1 vector with a C-terminal 6 × His-tag. Their identities were confirmed by sequencing. The mature form of AtLURE1.1 (residues 20–94), AtLURE1.2 (residues 20–90), AtLURE1.3 (residues 21–91), and AtLURE1.4 (residues 20–90) were cloned into pFastBac-1 vector, with a modified N-terminal hemolin signal peptide and 6 × His-SUMO tag. Point mutation constructs were generated by QuickChange Site-Directed Mutagenesis Kit (Strategene). All the proteins were expressed using the Bac-to-Bac baculovirus expression system (Invitrogen) in High Five cells at 22 °C. One liter of High Five cells (2.0 × 10^6 cells mL^−1) cultured in the medium from Expression Systems was infected with 25 ml recombinant baculovirus and the media was collected after 72 h of infection. Secreted LRR proteins were purified using Ni-NTA (Novagen) and size-exclusion chromatography (Hiload 200, GE Healthcare) in buffer containing 10 mM Bis-Tris pH 6.0 and 100 mM NaCl. The His-SUMO tag of the AtLURE proteins was removed by Prescission Protease at 4 °C overnight in buffer containing 25 mM Tris pH 8.0 and 150 mM NaCl. […]
Background: In gel filtration, larger molecules generally elute earlier.

The subject of a further assay is MIK2^LRR. The experiment in a line: Gel filtration assay with MIK2^LRR. Format: binding, Arabidopsis. The note with it: 4 °C 30 min, 10 mM Bis-Tris pH 6.0, 100 mM NaCl.
Text: as §1

The test system of assay [1] is prk6 pollen tubes transformed with PRK6 of wild-type. The experiment in a line: Gelatin-beads assay, prk6 pollen tubes transformed with wild-type PRK6. Type of assay: cell-based, Arabidopsis. As to conditions: beads with 250 nM wild-type AtLURE1.2; 10–23 pollen tubes per assay, three assays. How it is done:
(§2) Attraction activities of mutant AtLURE1.2 peptides were examined for semi-in-vivo pollen tubes growing through cut, pollinated pistils by gelatin-beads assay and wavy assay, [20]. For the gelatin-beads assay, pollen tubes were grown on solid pollen germination medium poured into a mold made with 1-mm thick silicone rubber and cover glasses. After hand-pollination, the topside cover glass was removed and the medium was covered with hydrated silicone oil (KF-96–100CS; Shin-Etsu). Attraction of pollen tubes toward the peptide was evaluated using AtLURE1 peptide containing gelatine beads under an inverted microscope (IX71, Olympus) equipped with a micro-manipulator (Narishige). For the AtLURE1-responsive wavy assay, the purified AtLURE1.2 peptide was added to solid pollen germination medium, which was melted at 70 °C and then cooled to a certain degree. The mixture was mixed by vortexing and poured into the mold. Pollen tubes of each genotype were grown through cut styles, as mentioned above. Each peptide (25 μM in 10 mM Bis-Tris (pH 6.0) and 100 mM NaCl) was diluted to 250 nM by cultivation medium in both assays. To examine reactivity of PRK6 mutants to AtLURE1.2, constructs for PRK6 mutants, D234A, N239A, and ΔN239I240, were generated by site-directed mutagenesis from a wild-type PRK6 vector, pPZP221-pPRK6::PRK6-mRuby2 (ref. [20]). […]

For assay [2], the system named is semi-in-vivo pollen tubes (wild type). The experiment in a line: AtLURE-responsive wavy assay, wild-type pollen tubes. As to conditions: 250 nM peptide in solid pollen germination medium. Type of assay: cell-based, Arabidopsis. As to the method:
as §2, with “assays.” for “assays. To examine reactivity of PRK6 mutants to AtLURE1.2, constructs for PRK6 mutants, D234A, N239A, and ΔN239I240, were generated by site-directed mutagenesis from a wild-type PRK6 vector, pPZP221-pPRK6::PRK6-mRuby2 (ref. [20]).”
pollen tubes. Fluorescence is from mRuby2 fused to the C-terminal of PRK6 receptors, showing that all of mutant PRK6 receptors localize normally to the plasma membrane of the pollen tube tip. […]

A further assay has as its system MDIS1. The note with it: cited from earlier work. The text has this:
(§3) More recently, progress has been made in the identification of sensory receptors for external cues during pollen tube guidance, [18]. Through genetic screening, two research groups identified different pollen tube specific receptor kinases (RKs) which can function as the receptors of AtLURE1 (refs. [19], [20]). […] By contrast, our data ... || page 2: co-receptor in the signaling system. Typos : - line 167 : Lue242 instead of Leu242 Reviewer #3 (Remarks to the Author): The Zhang et al. manuscript is a continuation of the study of pollen tube guidance to its female target to deliver sperm for fertilization, starting almost twenty years ago by the Higashiyama group, which recently reported a number of pollen receptor kinases (PRKs) as receptors for the attractant LURE1(- 2) from Arabidopsis. The Zhang et al study here caps it by elucidating the structure of LURE1-PRK6 on the atomic level. In principle, the study is an imminently publi ...

A further assay relates to MIK1. The note with it: cited from earlier work.
Text: as §3

The subject of another assay is MIK2. As to conditions: cited from earlier work.
Text: as §3

B1: AtLURE1.2: mature form of AtLURE1.2 (residues 20–90), defensin-like cysteine-rich peptide expressed in insect cells (protein)
chain: TLINGSSDEERTYSFSPTTSPFDPRSLNQELKIGRIGYCFDCARACMRRGKYIRTCSFERKLCRCSISDIK
modifications: left off: His6, N-terminal, cleaved | SUMO, N-terminal, cleaved
notes: mature form of AtLURE1.2 (residues 20–90), defensin-like cysteine-rich peptide expressed in insect cells
Take B1: the “interaction in gel filtration” value with AtPRK3^LRR was “none of the purified AtPRK3^LRR, MIK1^LRR or MIK2^LRR proteins showed detectable interaction”; in the assay with MIK2^LRR it was “none of the purified AtPRK3^LRR, MIK1^LRR or MIK2^LRR proteins showed detectable interaction”. Also, the pollen tube attraction entry in assay [1] is “attraction was normally observed”. Further, the “wavy pollen tube response” value in assay [2] is “caused pollen tube wavy response”. In addition, the “binding to MDIS1” value in the assay with MDIS1 is reported as “directly binds”. Moreover, the “binding to MIK1” value in the assay with MIK1 is “directly binds”. The “binding to MIK2” value in the assay with MIK2 is “directly binds”.
